The values that follow come from the DeepSol protein solubility set.

A short description of the series: soluble on expression in E. coli; label from the status in PepcDB or PDB records.
As to “MGSSHHHHHHSSGLVPRGSHMDLSAASHRIPLSDGNSIPIIGLGTYSEPKSTPKGACATSVKVAIDTGYRHIDGAYIYQNEHEVGEAIREKIAEGKVRREDIFYCGKLWATNHVPEMVRPTLERTLRVLQLDYVDLYIIEVPMAFKPGDEIYPRDENGKWLYHKSNLCATWEAMEACKDAGLVKSLGVSNFNRRQLELILNKPGLKHKPVSNQVECHPYFTQPKLLKFCQQHDIVITAYSPLGTSRNPIWVNVSSPPLLKDALLNSLGKRYNKTAAQIVLRFNIQRGVVVIPKSFNLERIKENFQIFDFSLTEEEMKDIEALNKNVRFVELLMWRDHPEYPFHDEY”, the “soluble on expression in E. coli” value is “soluble”.
Consider “MGSDKIHHHHHHMDKLIAFLKDKKITEVECVISDMTGIARGKIAPVDKFVSEKGMRLPESVLLQTVTGDFIDDEVYYQLLDDADIDFVCVPDENAVFMLPWTVEATAQVIHDCYDRMGNPIELSPRNVLKKVLKLYEDKGWEPVIAPEMEFYLTKRSDDHDLPLKPPIGRSGRPEAGRQSFSIDAANEYDPLFEDMYDWCEIQGLDIDTLIHEDGPAQMEINFSHGNALSLADQVFIFKRTLKEAALKHDVCATFMAKPVTDEPGSAMHIHQSVLDIKTGKNIFTKDDGTQSKLFLSYIAGLQQYIPELLPLMAPSANSFRRFLPGTSAPVNLEWGVENRTCGLRIPESSPQNRRIENRIPGADANCYLAIAASLLCGYIGMVDDLKPSTPVTGKSNESRTNNENCLPLTLEEALVAMQSSDACIEYLGQSFTTGFVAVKQAELENFRRVVSSWEREFLLLTV”, for which the “soluble on expression in E. coli” value is “not soluble”.
For “MGSDKIHHHHHHEDTTSSPEEDPLAPQNDDADLLLKPLIAKDPRTRGQRGPFAAMTGSYGRGGYGGSGGGAFGGFNGGYGQGGYGGGGDFGGGMGGGGYGGGGYGGGGDGGGGYGGYGGGGYGGMGGGPGGYGMGGYGGGGGGGGDFGGYGGGGMGGGGYGGGGDGGYGGGGFGGGGMGGYGGGMGGGGYGGGGMGGGGYGGGGDGGYGPSGGYGGGYGPGGGYGMGGGGGGGGCPNGECRGKK”, the “soluble on expression in E. coli” value is “not soluble”.
Take “MTQTLLAIENLSVGFRHQQTVRTVVNDVSLQIEAGETLALVGESGSGKSVTALSILRLLPSPPVEYLSGDIRFHGESLLHASDQTLRGVRGNKIAMIFQEPMVSLNPLHTLEKQLYEVLSLHRGMRREAARGEILNCLDRVGIRQAAKRLTDYPHQLSGGERQRVMIAMALLTRPELLIADEPTTALDVSVQAQILQLLRELQGELNMGMLFITHNLSIVRKLAHRVAVMQNGRCVEQNYAATLFASPTHPYTQKLLNSEPSGDPVPLPEPASTLLDVEQLQVAFPIRKGILKRIVDHNVVVKNISFTLRAGETLGLVGESGSGKSTTGLALLRLINSQGSIIFDGQPLQNLNRRQLLPIRHRIQVVFQDPNSSLNPRLNVLQIIEEGLRVHQPTLSAAQREQQVIAVMHEVGLDPETRHRYPAEFSGGQRQRIAIARALILKPSLIILDEPTSSLDKTVQAQILTLLKSLQQKHQLAYLFISHDLHVVRALCHQVIILRQGEVVEQGPCARVFATPQQEYTRQLLALS”: the “soluble on expression in E. coli” value is “not soluble”.
The entry for “MSLSTGTMTLHRRLQVEYGLYQDRGRRPTMEDAHTVVSSLPIPQLEEQDEGNTTVSLFAIMDGHCGDSASYYSAAQLASKVSECWPCCMTTSSIVSSLHNAHILMDAQFLEIARSSNILAGCTCLSTVIVTEAHRIRIFTANLGDSRAILCRHGAFSAWLKFSPPSAAAEANANRLNLISFFPGSRLVIPLSLDQKPNISPDRERIEAAGAFTYPSLIKYKDKIAIRGPHRIFPGGLAVPRAIGDLPYKDMTYLNSLGVSAPLVSSDPVISIYDLTEQDEFILQACDGLWDVISSKEAAIFASVMHYIHQLARMPHKAFKKLRRPLKQILFKMGVTSYYSPTSVAVAEALCNHAKLRGSQDNVTVSVIFPEFIKSEGHHHHHH” is “not soluble”.
Then “MAHHHHHHMLLLLFRPVYQCTVALLCRSLPAYHPCLLSTDSPPPFFTVFCHLDDALHAMRRRSCSLRRLEVHTKRRAHAIMAELANPNPTVFEPTHDPLKGRTDAERAAEDDEDTEDPIDAWEVFEMIRRIRDPEHPNSLEQLKVVEPSLITVDWKKRHIRVLFTPTVPHCSLTTLIGLSIRLQLERSLPEYTKVDIYVTPGTHEQEAQVNKQLNDKERVAAALENRNLLNVVESCINEFDE”, with “not soluble”; and “MTNQNVLLNISGVKFVLRIPNAVNLSLINREYEAFNNAQAYRAGLNVETPVLDAKSGVKLTRYLENSNTLSQIQLNEQSCLSQVVNNLYRLHNSEFVFRNVFSVFDEFRQYFSLLENKSAFYQADSRMDKLSAVFWQFEEINKEVILRPCHNDLVPENMLLQDDRLFFIDWEYSGLNDPLFDIATIIEEAHLSKEAADFLLETYCNQTNKYHKTEFQIAHKRLKIHRFCQNVLWFLWTKVKEEHGENFGDYALKRLDAAFKLLEELPLEHHHHHH”, with “not soluble”; and “MGSDKIHHHHHHMSEIKNRIDFVYIFDVQDGNPNGDPDAGNLPRVDAETGMGLVTDVCLKRKVRNYVQVAKGLEDGYDIFIKEKAVLNTLIDKAHDDSEVKNAKDKTDAARRFMCKNYFDVRTFGAVMSTGKNAGQVRGPIQFTFARSVDPIAAAEHSITRMAVATDAEAKKQSGDNRTMGRKATVPYGLYICHGFISANLAQQTGFSEEDLALFWEALKNMFDMDRSAARGLMSAQKLIVFKHDSVLGNAPANKLFDLVKVEKVCDGAPRSFGDYHVTIDKEHVPSNVTVEELI”, with “not soluble”.
Then “MSQLVFIVFQDNDDSRYLAEAVMEDNPDAEMQHQPAMIRIQAEKRLVINRETMEEKLGRDWDVQEMLINVISIAGNVDEDDDHFILEWN”, with “soluble”.
“MVRPRTIDRERLLDIAESIISEAGAVTISFGGLAEAAGLSKASVQSVFGTREAMMEALLERWLRKEQRAYQKKIGPQSSLRERVRRHVKITGKESSEANSRLAAVLTALVGSDATEGVMAKWYASRVGKFSAETQEERLLRIAFLAAEGAFFMRHVAGFPMSDRLWRELFHDLLDFVAEPVGGAARSAA”: the “soluble on expression in E. coli” value was “not soluble”.
Then “MAHHHHHHMKQECNVCYFNLPDPESTLGPYDNELNYFTWGPGFEYEPEPQRKPLSIEESFENSEESEESVADIQQLEEKVDESDVRIYFNEKSSGGKISIDNASYNARKLGLAPSSIDEKKIKELYGDNLTYEQYLEYLSICVHDKDNVEELIKMFAHFDNNCTGYLTKSQMKNILTTWGDALTDQEAIDALNAFSSEDNIDYKLFCEDILQ”, with “soluble”; and “MKIKTRFAPSPTGYLHVGGARTALYSWLFARNHGGEFVLRIEDTDLERSTPEAIEAIMDGMNWLSLEWDEGPYYQTKRFDRYNAVIDQMLEEGTAYKCYCSKERLEALREEQMAKGEKPRYDGRCRHSHEHHADDEPCVVRFANPQEGSVVFDDQIRGPIEFSNQELDDLIIRRTDGSPTYNFCVVVDDWDMEITHVIRGEDHINNTPRQINILKALKAPVPVYAHVSMINGDDGKKLSKRHGAVSVMQYRDDGYLPEALLNYLVRLGWSHGDQEIFTREEMIKYFTLNAVSKSASAFNTDKLLWLNHHYINALPPEYVATHLQWHIEQENIDTRNGPQLADLVKLLGERCKTLKEMAQSCRYFYEDFAEFDADAAKKHLRPVARQPLEVVRDKLAAITDWTAENVHHAIQATADELEVGMGKVGMPLRVAVTGAGQSPALDVTVHAIGKTRSIERINKALDFIAERENQQ”, with “soluble”; and “FSNKRVLVEKEGEAGIAVMKFKNPPVNSLSLEFLTEFVISLEKLENDKSIRGVILTSERPGIFSAGLDLMEMYGRNPAHYAEYWKAVQELWLRLYLSNLTLISAINGASPAGGCLMALTCDYRIMADNSKYTIGLNESLLGIVAPFWLKDNYVNTIGHRAAERALQLGTLFPPAEALKVGLVDEVVPEDQVHSKARSVMAKWFTIPDHSRQLTKSMMRKATADNLIKQREADIQNFTSFISRDSIQKSLHVYLEKLKQKKG”, with “soluble”.
Then “MDLFKRKVKEWVYSLSTDDHYAEYNPDETPTFNMGKRLNSNNGQVNPSQMHLNSVDEEMSMGFQNGVPSNEDINIDEFTSTESNDGVSETLLAWRHIDFWTSEHNPDLNATLSDPCTQNDITHAEEDLEVSFPNPVKASFKIHDGQEDLESMTGTSGLFYGFQLMTLDQVVAMTQAWRNVAKNLNKRSQQGLSHVTSTGSSSSMERLNGNKFKLPNIPDQKSIPPNAVQPVYAHPAWIPLITDNAGNHIGVDLAPGPNGKYAQIITFGRDFDTKFVIAENWGEFLLSFANDLEAGNWYLVDDNDDYFSGDGELVFRDKKSNGPIQDYFEVLKRRTWIKYQENLRSQQQKSQPDTSLQEQKYVPASQKKVAAEQPSTLNAESIKGEDSGSADVQSVQDHESVKIVKTEPSEAETTTVNTESLGQAEHEIKADNVDIKQESERKEDEKQPKVEEKEHVENEHVTESAKKDDDVNKQTEEMNKKEENEIRSDDAKVEEAREEFENIAL”, with “soluble”.
The entry for “LYPEEILDTHWELWKKTHRKQYNNKVDEISRRLIWEKNLKYISIHNLEASLGVHTYELAMNHLGDMTSEEVVQKMTGLKVPLSHSRSNDTLYIPEWEGRAPDSVDYRKKGYVTPVKNQGQCGSCWAFSSVGALEGQLKKKTGKLLNLSPQNLVDCVSENDGCGGGYMTNAFQYVQKNRGIDSEDAYPYVGQEESCMYNPTGKAAKCRGYREIPEGNEKALKRAVARVGPVSVAIDASLTSFQFYSKGVYYDESCNSDNLNHAVLAVGYGIQKGNKHWIIKNSWGENWGNKGYILMARNKNNACGIANLASFPKM” is “soluble”; for “MSLIVITGASSGLGAELAKLYDAEGKATYLTGRSESKLSTVTNCLSNNVGYRARDLASHQEVEQLFEQLDSIPSTVVHSAGSGYFGLLQEQDPEQIQTLIENNLSSAINVLRELVKRYKDQPVNVVMIMSTAAQQPKAQESTYCAVKWAVKGLIESVRLELKGKPMKIIAVYPGGMATEFWETSGKSLDTSSFMSAEDAALMIHGALANIGNGYVSDITVNREGHHHHHH” it is “soluble”; for “HYPKALDQLSEDRGYAFSYPTAAPCERLVWSISQSLMEGKEINALFDRINSSTKRDMVTKVSPKAPHTVVLVLGESARPDYMHSYGYPLENTPRLDSLLASGAAVQFDDVVSAKPNTQGSIAAMMSIGESRAGGKWYDDPMLIPLLRSAGYYTFWLSAQEKLGFAVQNVTAIAKLSDSTLFVFRGMDDVVLPNLMQRAEYQNLFEVVHLSGSHVSYQDRYPSEFGKFTSENLPSHHDESKDAVVAHYVNSLYYTDYILGEIERKYANEDAIIIYLSDHGQVLYDAPNNPNLVGHSFSQQGVSIPLFIYLSPSMRTKYPELIPRLQSIRSRRIMTDVLPYAIMGLLGIESPLYNPELDFWGTGYDEHRPRVIYSDDSSLVID” it is “not soluble”.
“MSHHPDLSVSLDQLLLRKEVRVRQQGEWLKRHSLPLVSFTVNMPGAVKLNAASQTVMDAGMRAIQELCQKTGWRQVACQLLVEKTGPEAFVVIQAPSASMLKKAMMKIEREHPLGRLMDLDVIDVDGHIISRQGAQLPRRRCLLCERDAVICARSRRHSVEALLAKIEEMTHDYSCCA”: the “soluble on expression in E. coli” value is given as “soluble”.
Then “MGSDKIHHHHHHNENPDKPTDDVNYNMNEPRLASTLRGGLIIEGNVEQRLKPLQIDFYSQMTVDGGGWGTKNYIQDDEWNNLVWEEYLKQIASINIVIRSLTEKDKDAYANTIAFARIWRVYVHTLAADKFGPMPFPAYEIVEANPPYKSLKDIYDEYFRELDAAINGFNDSAQPIFSDAGIDLIYKNDVSKWKRFANSLRLRLAVRLTEVDQEKCIAEANAAISSPAGLISDKADNAYMPPKADGSWGQDYNYTMFQITWSGPICMSKSVEKLVTNIGGVAWPQGVVNQTSGVAVSSVHPEKVDPRAPKIFQPGIENGDWKGLVYGPKAEEANTGIYQSKQCAELGFIIKDGYPYKSRPYDLFLSEEVHFLKAELYARGFIAGDAKSEYEAGVRASFATWGVTSEVDDYLTSTEKNEAGTSARYDDQQGAGNTALEKIITQKYIAGIPDLAQEGWNDKRRLNLPRLDVAVYRDQAVYNNNDKDILKSANFIKRMRYPTKESLINATEYEKGKSMLGGKGDIVSTPLWWDKNSNYCTSSK”, with “not soluble”.
